The source of these data is JP2007300927A (dated 2007).

Where a chain is given by its changes, count along the chain named. Numbers in names are those of the source.

First the molecules themselves.
T1: GC-1 (human, UniProt P51654 495-563)
T1 construct: Made in E. coli DH5α, purified on glutathione resin; also called GST融合タンパク質GC-1(Ser495からLys563); not shown: GST (glutathione S-transferase) of vector pGEX-4T-3 (Amersham), N-terminal to the GPC3 piece
T1 sequence: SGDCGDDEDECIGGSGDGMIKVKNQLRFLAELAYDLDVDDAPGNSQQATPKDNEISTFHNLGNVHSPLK

T2: GC-3 (human, UniProt P51654 524-563)
T2 construct: also called GST融合タンパク質GC-3(Ala524からLys563); not shown: GST (glutathione S-transferase) of vector pGEX-4T-3 (Amersham), N-terminal to the GPC3 piece
T2 chain: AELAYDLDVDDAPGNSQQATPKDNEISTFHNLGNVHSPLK

T3: GC-2 (human, UniProt P51654 510-563)
T3 construct: also called GST融合タンパク質GC-2(Gly510からLys563); not shown: GST (glutathione S-transferase) of vector pGEX-4T-3 (Amersham), N-terminal to the GPC3 piece
T3 sequence: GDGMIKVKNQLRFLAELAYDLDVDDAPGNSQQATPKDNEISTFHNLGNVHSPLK

B1: 改変抗体G34E (antibody, human IgG1, V domains shown)
VH: QVQLVQSGAEVKKPGASVKVSCKASGYTFTDYEMHWVRQAPGQGLEWMGALDPKTGDTAYSQKFKGRVTLTADKSTSTAYMELSSLTSEDTAVYYCTRFYSYTYWGQGTLVTVSS
VL: DVVMTQSPLSLPVTPGEPASISCRSSQSLVHSNENTYLHWYLQKPGQSPQLLIYKVSNRFSGVPDRFSGSGSGTDFTLKISRVEAEDVGVYYCSQNTHVPPTFGQGTKLEIK
notes: As G34A: H chain ver.k by 'the method above'; human IgG1/κ; COS7 supernatant
B2: 改変抗体G34Y (antibody, human IgG1, V domains shown)
VH: B1 VH
VL: B1 VL with E34Y
notes: as for B1
B3: Asn33をAspに置換した改変抗体(N33D) (antibody, human IgG1, V domains shown)
VH: B1 VH
VL: B1 VL with N33D, E34G
notes: Humanised GC33 H chain ver.k (HEFgγ1, human IgG1) with L chain ver.a N33D (HEFgκ, human κ), expressed transiently in COS7; culture supernatant used
B4: 改変抗体G34F (antibody, human IgG1, V domains shown)
VH: B1 VH
VL: B1 VL with E34F
notes: as for B1
B5: 改変抗体G34L (antibody, human IgG1, V domains shown)
VH: B1 VH
VL: B1 VL with E34L
notes: as for B1
B6: 改変抗体G34K (antibody, human IgG1, V domains shown)
VH: B1 VH
VL: B1 VL with E34K
notes: as for B1
B7: 改変抗体G34S (antibody, human IgG1, V domains shown)
VH: B1 VH
VL: B1 VL with E34S
notes: as for B1
B8: 改変抗体G34D (antibody, human IgG1, V domains shown)
VH: B1 VH
VL: B1 VL with E34D
notes: as for B1
B9: 改変抗体G34I (antibody, human IgG1, V domains shown)
VH: B1 VH
VL: B1 VL with E34I
notes: as for B1
B10: 改変抗体G34A (antibody, human IgG1, V domains shown)
VH: B1 VH
VL: B1 VL with E34A
notes: Humanised GC33 L chain ver.a variant; human IgG1/κ; COS7 culture supernatant
B11: 改変抗体G34W (antibody, human IgG1, V domains shown)
VH: B1 VH
VL: B1 VL with E34W
notes: as for B1
B12: 改変抗体G34R (antibody, human IgG1, V domains shown)
VH: B1 VH
VL: B1 VL with E34R
notes: as for B1
B13: 改変抗体G34N (antibody, human IgG1, V domains shown)
VH: B1 VH
VL: B1 VL with E34N
notes: as for B1
B14: 改変抗体G34Q (antibody, human IgG1, V domains shown)
VH: B1 VH
VL: B1 VL with E34Q
notes: as for B1
B15: 改変抗体G34H (antibody, human IgG1, V domains shown)
VH: B1 VH
VL: B1 VL with E34H
notes: as for B1
B16: 改変抗体G34T (antibody, human IgG1, V domains shown)
VH: B1 VH
VL: B1 VL with E34T
notes: as for B1
B17: ヒト化GC33 H鎖ver.k / L鎖ver.a (antibody, human IgG1, V domains shown)
VH: B1 VH
VL: B1 VL with E34G
notes: Human IgG1 / κ constant regions; also called GC33 VH ver.k
B18: GC33 ver.a / mouse (antibody, human IgG1, V domains shown)
VH: B1 VH with Q6E, L70I, K74E, T87R, T97A
VL: B1 VL with S7T, T14S, P15L, E17D, P18Q, E34G, Q50K, V88L, Y92F, Q105S
notes: Humanised H chain variable region ver.a combined with the mouse GC33 L chain variable region; human IgG1 / κ constant regions; also called H鎖 ver.a / L鎖 マウスGC33
B19: ヒト化GC33 H鎖ver.f / L鎖ver.a (antibody, human IgG1, V domains shown)
VH: B1 VH with Q6E, T87R
VL: B1 VL with E34G
notes: Human IgG1 / κ constant regions; also called GC33 VH ver.f
B20: ヒト化GC33(ver.a / ver.a) (antibody, V domains shown)
VH: B1 VH with Q6E, L70I, K74E, T87R, T97A
VL: B1 VL with E34G
notes: Human IgG1 / human κ constant regions (HEFgγ1, HEFgκ); also called GC33 VH ver.a / GC33 VL ver.a
B21: ヒト化GC33 H鎖ver.c / L鎖ver.a (antibody, human IgG1, V domains shown)
VH: B1 VH with Q6E, K74E, T87R
VL: B1 VL with E34G
notes: Human IgG1 / κ constant regions; also called GC33 VH ver.c
B22: ヒト化GC33 H鎖ver.h / L鎖ver.a (antibody, human IgG1, V domains shown)
VH: B1 VH with Q6E
VL: B1 VL with E34G
notes: Human IgG1 / κ constant regions; also called GC33 VH ver.h
B23: ヒト化GC33 H鎖ver.i / L鎖ver.a (antibody, human IgG1, V domains shown)
VH: B1 VH with K74E, T87R
VL: B1 VL with E34G
notes: Human IgG1 / κ constant regions; also called GC33 VH ver.i
B24: ヒト化GC33 H鎖ver.j / L鎖ver.a (antibody, human IgG1, V domains shown)
VH: B1 VH with T87R
VL: B1 VL with E34G
notes: Human IgG1 / κ constant regions; also called GC33 VH ver.j
B25: L9G11 (antibody, V domains shown)
VH: QVQLQQPGAELVKPGASVKLSCKASGYTFTSYWMHWVKQRPGQGLEWIGTIDPSDSETHYNLQFKDTATLTVDKSSSTAYMQLSSLTSEDSAVYYCIRGAFYSSYSYWAWFAYWGQGTLVTVSA
VL: DIVLTQSPTSLAVSLGQSVTISCRASESVEYYGTSLMQWYQQKPGQPPKLLIYGASNVESGVPARFSGSGSGTDFSLNIHPVEEDDIAMYFCQQSRKVPYTFGSGTKLEIK
notes: Mouse hybridoma antibody
B26: M6B1 (antibody, V domains shown)
VH: EVQLVESGGDLVKPGGSLKLSCAASGFTFSSYAMSWVRQTPEKRLEWVAAINSNGGTTYYPDTMKDRFTISRDNAKNTLYLQMSSLRSEDSALYYCTRHNGGYENYGWFAYWGQGTLVTVSA
VL: DIQMTQSPSSLSASLGGKVTITCKASQDINKNIIWYQHKPGKGPRLLIWYTSTLQPGIPSRFSGSGSGRDYSFSISNLEPEDIATYYCLQYDNLPRTFGGGTKLEIK
notes: Mouse hybridoma antibody
B27: M13B3 (antibody, V domains shown)
VH: EVHLVESGGGLVKPGGSLKLSCAASGFTFSNYAMSWVRQTPEKRLEWVAAINNNGDDTYYLDTVKDRFTISRDNAKNTLYLQMSSLRSEDTALYYCVRQGGAYWGQGTLVTVSA
VL: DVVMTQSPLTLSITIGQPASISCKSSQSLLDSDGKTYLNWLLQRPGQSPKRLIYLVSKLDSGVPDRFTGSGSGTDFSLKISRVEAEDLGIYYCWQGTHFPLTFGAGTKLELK
notes: Mouse hybridoma antibody
B28: GC199 (antibody, V domains shown)
VH: QIQLEQSGPELKKPGETVKISCKASGYIFRDYSMHWVKQAPGKGLKWMGWINTETGEPTYADDFKGRFAFSLETSASTAYLQINNLKNEDTATYFCTSLYWGQGTLVTVSA
VL: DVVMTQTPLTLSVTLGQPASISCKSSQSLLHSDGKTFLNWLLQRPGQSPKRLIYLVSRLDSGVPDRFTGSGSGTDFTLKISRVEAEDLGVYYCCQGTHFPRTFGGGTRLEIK
notes: Mouse hybridoma antibody from GC-3 immunisation; also called GC199抗体
B29: GC33 (antibody, V domains shown)
VH: QVQLQQSGAELVRPGASVKLSCKASGYTFTDYEMHWVKQTPVHGLKWIGALDPKTGDTAYSQKFKGKATLTADKSSSTAYMELRSLTSEDSAVYYCTRFYSYTYWGQGTLVTVSA
VL: B1 VL with S7T, T14S, P15L, E17D, P18Q, E34G, Q50K, V88L, Y92F, Q105S
notes: also called GC33抗体
B30: GC179 (antibody, V domains shown)
VH: EVQLVETGGGLVQPEGSLKLSCAASGFSFNINAMNWVRQAPGKGLEWVARIRSESNNYATYYGDSVKDRFTISRDDSQNMLYLQMNNLKTEDTAIYYCVREVTTSFAYWGQGTLVTVSA
VL: DIVMTQSAPSVPVTPGESVSISCKSSKSLLHSNGNTYLNWFLQRPGQSPQLLIYWMSNLASGVPDRFSGSGSGTAFTLRISRVEAEDVGVYYCMQHIEYPFTFGTGTKLEIK
notes: Mouse hybridoma antibody from GC-3 immunisation

One test concerns the target T4, 可溶型GPC3コアタンパク質 (human, UniProt P51654 25-563).
T4 construct: also called 可溶型GPC3コア蛋白質; soluble GPC3 core protein; not shown: C-terminal His tag
Kind of test: ELISA on immobilised soluble GPC3 core protein, COS7 supernatant.
Target sequence in this assay (P51654 25-563 S495A/S509A): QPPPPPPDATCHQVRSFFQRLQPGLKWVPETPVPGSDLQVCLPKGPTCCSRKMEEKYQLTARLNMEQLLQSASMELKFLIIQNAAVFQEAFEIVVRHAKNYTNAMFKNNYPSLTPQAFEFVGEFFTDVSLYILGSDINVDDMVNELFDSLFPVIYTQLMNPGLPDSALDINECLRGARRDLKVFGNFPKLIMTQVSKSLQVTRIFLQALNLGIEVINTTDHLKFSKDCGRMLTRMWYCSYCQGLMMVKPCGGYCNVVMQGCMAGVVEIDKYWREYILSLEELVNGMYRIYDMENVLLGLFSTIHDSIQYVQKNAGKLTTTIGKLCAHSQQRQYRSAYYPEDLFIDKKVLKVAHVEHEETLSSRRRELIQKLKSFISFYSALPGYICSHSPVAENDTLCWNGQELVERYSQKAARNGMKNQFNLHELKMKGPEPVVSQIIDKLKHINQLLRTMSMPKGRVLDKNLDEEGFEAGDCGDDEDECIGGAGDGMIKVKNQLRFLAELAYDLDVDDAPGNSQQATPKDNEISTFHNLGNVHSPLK
For B1, the binding result is given as “binds”.

In the case of B2, the binding result is “binds”. B3: the binding result is reported as “no binding”.

Turning to B4, the binding result is on record as “binds”. Still for that read-out and setting: under B5 stands “binds”; under B6, “binds”.

For the molecule B7, the binding result was “binds”. Still for that read-out and setting: the same measure for B8: “binds”; for B9: “binds”; for B10: “binds”. On the same count and under the same terms, the same measure for B11: “binds”; for B12: “binds”; for B13: “binds”.

For the molecule B14, the binding result was “binds”. Same read-out and setting: the same measure for B15: “binds”; for B16: “binds”.

The target of a further test is T4, 可溶型GPC3コアタンパク質. As to the kind of experiment: ELISA on GPC3 (Fig. 15).
Target sequence in this assay (P51654 25-563 S495A/S509A): as above
Regarding B17, the binding result is recorded as “binds”.

With B18, the binding result is recorded as “binds”.

For the molecule B19, the binding result is “binds”. Consider B20, for which the binding result is “binds”.

For B21, the binding result is “binds”. As for B22, the binding result is listed as “binds”. Still for that read-out and setting: the same measure for B23: “binds”. Turning to B24, the binding result is listed as “binds”.

The next test addresses T4, 可溶型GPC3コアタンパク質. Kind of test: ELISA, purified antibody from 10 μg/mL in 3-fold steps on immobilised soluble GPC3 core protein.
Target sequence in this assay (P51654 25-563 S495A/S509A): as above
In the case of B25, the binding result is listed as “binds”. On the same count and under the same terms, the same measure for B26: “binds”. The same measure, in the same setting: under B27 stands “binds”.

Another test addresses T1, GC-1. Kind of test: Western blot of GST fusion proteins.
On to B28, for which the binding result is “binds”. On the same count and under the same terms, the same measure for B29: “binds”; for B30: “binds”.

In the next test the target is T2, GC-3. As to the kind of experiment: Western blot of GST fusion proteins.
B28: the binding result is “binds”. On the same count and under the same terms, the same measure for B29: “binds”; for B30: “binds”.

In a further test the target is T3, GC-2. As to the kind of experiment: Western blot of GST fusion proteins.
In the case of B28, the binding result is given as “binds”. Take B29: the binding result is given as “binds”. The same measure, in the same setting: the same measure for B30: “binds”.

Another test deals with T4, 可溶型GPC3コアタンパク質. Kind of test: ELISA screening on immobilised soluble GPC3 core protein.
On to B28, for which the binding result was “binds”.

Take B29: the binding result is given as “binds”. On the same count and under the same terms, under B30 stands “binds”.
